Laboratory results from the Human Domainome abundance scans (Beltran et al. 2025).
± gives the uncertainty stated by the source.

B1: Far upstream element-binding protein 1, residues 98 to 169; numbered along this chain, Q96AE4 (parent)
chain: RSVMTEEYKVPDGMVGFIIGRGGEQISRIQQESGCKIQIAPDSGGLPERSCMLTGTPESVQSAKRLLDQIVE

Variants of: B1
Assay: abundance fitness (aPCA) (normalised: wild type 0, dead -1); higher = more abundant; growth selection in yeast, the domain comes from the species named
Conditions: Homo sapiens

Row | Variant | abundance fitness
1 | G13L | -0.079 ± 0.026
2 | G13E | 0.041 ± 0.032
3 | G13V | -0.218 ± 0.027
4 | G13W | -0.038 ± 0.029
5 | G13Y | 0.012 ± 0.044
6 | G13I | -0.034 ± 0.047
7 | G13K | 0 ± 0.034
8 | G13F | -0.123 ± 0.045
9 | G13P | -0.019 ± 0.03
10 | G13A | -0.01 ± 0.026
11 | G13T | 0.031 ± 0.031
12 | G13D | 0 ± 0.034
13 | G13Q | 0.033 ± 0.033
14 | G13S | 0.025 ± 0.026
15 | G13R | -0.007 ± 0.023
16 | G13M | -0.034 ± 0.036
17 | G13H | -0.055 ± 0.04
18 | I19D | -0.094 ± 0.038
19 | I19K | -0.021 ± 0.037
20 | I19G | -0.072 ± 0.025
21 | I19N | -0.036 ± 0.045
22 | I19F | -0.048 ± 0.054
23 | I19C | -0.001 ± 0.042
24 | I19M | -0.071 ± 0.036

Row | Variant | abundance fitness
25 | I19H | -0.06 ± 0.038
26 | I19E | 0.018 ± 0.032
27 | I19L | -0.006 ± 0.027
28 | I19A | -0.034 ± 0.027
29 | I18D | -0.175 ± 0.037
30 | I18K | -0.264 ± 0.034
31 | I18N | -0.236 ± 0.055
32 | I18W | -0.108 ± 0.029
33 | I18P | -0.266 ± 0.031
34 | I18E | -0.147 ± 0.029
35 | I18M | -0.049 ± 0.033
36 | I18R | -0.324 ± 0.024
37 | I18V | -0.031 ± 0.025
38 | I18C | -0.145 ± 0.041
39 | I18A | -0.189 ± 0.026
40 | I18L | -0.012 ± 0.027
41 | I18Q | -0.243 ± 0.035
42 | I18F | -0.036 ± 0.054
43 | I18T | -0.175 ± 0.028
44 | I18G | -0.206 ± 0.023
45 | I18Y | -0.21 ± 0.046
46 | I18S | -0.226 ± 0.028
47 | G16T | -0.054 ± 0.033
48 | G16D | 0.018 ± 0.039

Row | Variant | abundance fitness
49 | G16H | -0.064 ± 0.048
50 | G16E | 0.009 ± 0.03
51 | G16W | -0.09 ± 0.03
52 | G16Y | -0.118 ± 0.058
53 | G16K | -0.028 ± 0.038
54 | G16L | -0.102 ± 0.029
55 | G16M | -0.098 ± 0.036
56 | G16R | -0.007 ± 0.023
57 | G16A | -0.023 ± 0.029
58 | G16Q | -0.029 ± 0.033
59 | G16F | -0.176 ± 0.059
60 | G16N | -0.037 ± 0.043
61 | G16P | 0.033 ± 0.034
62 | G16I | -0.144 ± 0.06
63 | G16C | -0.083 ± 0.044
64 | G16V | -0.108 ± 0.027
65 | D12E | 0.001 ± 0.03
66 | D12N | 0.032 ± 0.041
67 | D12F | -0.066 ± 0.047
68 | D12S | -0.045 ± 0.026
69 | D12C | -0.057 ± 0.038
70 | D12V | -0.041 ± 0.027
71 | D12P | -0.009 ± 0.028
72 | D12Y | -0.045 ± 0.045

Row | Variant | abundance fitness
73 | D12W | -0.164 ± 0.032
74 | D12K | -0.068 ± 0.036
75 | D12L | -0.064 ± 0.026
76 | D12G | -0.049 ± 0.026
77 | D12I | -0.038 ± 0.051
78 | D12M | -0.067 ± 0.037
79 | D12R | -0.028 ± 0.023
80 | D12Q | -0.027 ± 0.031
81 | D12A | 0.019 ± 0.026
82 | D12H | -0.038 ± 0.047
83 | M14Y | -0.025 ± 0.05
84 | M14A | -0.007 ± 0.028
85 | M14C | -0.011 ± 0.037
86 | M14K | -0.066 ± 0.033
87 | M14D | -0.082 ± 0.037
88 | M14S | -0.026 ± 0.026
89 | M14P | -0.27 ± 0.031
90 | M14L | -0.013 ± 0.025
91 | M14V | -0.01 ± 0.027
92 | M14N | -0.105 ± 0.042
93 | M14I | -0.037 ± 0.043
94 | M14W | -0.093 ± 0.03
95 | M14H | -0.12 ± 0.044
96 | M14G | -0.097 ± 0.025

Row | Variant | abundance fitness
97 | M14R | -0.131 ± 0.023
98 | M14F | -0.016 ± 0.044
99 | V10H | -0.502 ± 0.046
100 | V10W | -0.193 ± 0.03
101 | V10R | -0.491 ± 0.026
102 | V10S | -0.382 ± 0.028
103 | V10D | -0.389 ± 0.038
104 | V10Y | -0.198 ± 0.039
105 | V10M | 0.008 ± 0.034
106 | V10Q | -0.581 ± 0.037
107 | V10G | -0.304 ± 0.024
108 | V10C | -0.078 ± 0.034
109 | V10E | -0.628 ± 0.04
110 | V10K | -0.584 ± 0.05
111 | V10F | -0.091 ± 0.038
112 | V10N | -0.48 ± 0.055
113 | V10L | -0.018 ± 0.025
114 | V10P | -0.265 ± 0.032
115 | P11Q | -0.099 ± 0.032
116 | P11Y | -0.127 ± 0.042
117 | P11W | -0.185 ± 0.03
118 | P11G | -0.138 ± 0.025
119 | P11S | -0.112 ± 0.025
120 | P11I | -0.159 ± 0.038

Row | Variant | abundance fitness
121 | P11L | -0.102 ± 0.025
122 | P11T | -0.124 ± 0.028
123 | P11C | -0.133 ± 0.033
124 | P11E | -0.067 ± 0.031
125 | P11N | -0.125 ± 0.041
126 | P11A | -0.081 ± 0.025
127 | P11R | -0.074 ± 0.023
128 | P11D | -0.052 ± 0.034
129 | P11F | -0.206 ± 0.046
130 | P11M | -0.136 ± 0.032
131 | P11H | -0.162 ± 0.041
132 | P11V | -0.17 ± 0.026
133 | F17I | -0.041 ± 0.04
134 | F17W | -0.007 ± 0.026
135 | F17V | -0.005 ± 0.024
136 | F17H | -0.003 ± 0.035
137 | F17P | 0.01 ± 0.028
138 | F17M | 0.018 ± 0.032
139 | F17G | 0.04 ± 0.022
140 | F17D | 0.015 ± 0.033
141 | F17R | 0.047 ± 0.021
142 | F17T | 0 ± 0.027
143 | F17L | -0.008 ± 0.024
144 | F17A | 0.045 ± 0.025

Row | Variant | abundance fitness
145 | F17S | 0.063 ± 0.024
146 | F17C | -0.009 ± 0.032
147 | F17E | 0.084 ± 0.027
148 | F17Y | -0.019 ± 0.038
149 | F17K | 0.072 ± 0.03
150 | F17N | 0.022 ± 0.038
151 | F17Q | 0.044 ± 0.029
152 | V15S | -0.059 ± 0.028
153 | V15W | -0.084 ± 0.029
154 | V15T | -0.126 ± 0.032
155 | V15C | -0.124 ± 0.039
156 | V15M | -0.027 ± 0.036
157 | V15P | -0.146 ± 0.032
158 | V15F | 0.011 ± 0.044
159 | V15Y | -0.144 ± 0.047
160 | V15D | -0.158 ± 0.044
161 | V15Q | -0.08 ± 0.035
162 | V15G | -0.136 ± 0.027
163 | V15H | -0.135 ± 0.044
164 | V15L | -0.046 ± 0.026
165 | V15N | -0.213 ± 0.049
166 | V15R | -0.206 ± 0.024
167 | V15I | -0.074 ± 0.041
